From paper PMC6377406

Biological target: ΔN-PINK1-GFP (UniProt Q9BXM7)
Assay: co-IP; GFP IP (μMACS Epitope Tag Protein Isolation kit) of lysates of transfected HEK293 cells; immunoblot

UniProt Q9BXM7, sequence (Q9BXM7 78-581, stated change not applied): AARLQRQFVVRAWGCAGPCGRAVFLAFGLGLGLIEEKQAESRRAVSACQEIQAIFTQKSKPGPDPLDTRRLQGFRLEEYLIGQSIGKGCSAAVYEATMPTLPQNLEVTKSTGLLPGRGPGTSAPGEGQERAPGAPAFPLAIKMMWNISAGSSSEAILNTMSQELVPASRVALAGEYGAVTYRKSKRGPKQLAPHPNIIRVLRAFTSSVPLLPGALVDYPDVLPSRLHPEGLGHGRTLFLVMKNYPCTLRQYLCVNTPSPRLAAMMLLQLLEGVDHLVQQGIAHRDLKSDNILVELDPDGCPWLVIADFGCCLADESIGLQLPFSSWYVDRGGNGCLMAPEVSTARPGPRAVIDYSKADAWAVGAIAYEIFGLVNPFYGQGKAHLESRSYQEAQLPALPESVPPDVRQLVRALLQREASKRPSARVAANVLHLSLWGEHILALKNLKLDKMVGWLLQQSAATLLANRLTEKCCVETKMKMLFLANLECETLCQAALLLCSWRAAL

fold of VCP pulled down against OMM-PINK1-GFP: 4 fold
Substance: valosin-containing protein (VCP), endogenous in HEK293 cells (from UniProt P55072 1-806) (natural protein)
